Experimental data as given in a protein production outcome set (Wang et al. 2014).

Assay: label from the status in PepcDB records

Row | Sequence | protein production
1 | MSLSDQEFDEKYLELSEELKQSEKHKGTLDQGASQFLNAIEFVLRVYRQTEVIYVYAHLKNDQDTGNTDYQALYARASSLFSKVSEAVSWFEPEILQLSDDQIWQYFKEEPKLEVYRHYIQQIVDNRAHVLSAEQESLLAGAGEIFDASSDTFAVLNNADLVFPTIEGENGEIVQLSHGVYGQLLESTDRRVREAAFKGLYSVYEQFRNTFASTLGTHIKGHNFKAKVRNYSSAREASLSNNHIPESVYDTLVDVVNKHLPLLHRYMELRKRLLEVEKLHMYDLYTPVLGEAPITFTYEEAKEKALEALKPMGEEYMAIVEKAFSERWIDVVENKGKRSGAYSSGSYDTNPYILLNWHDTLDQLFTLVHEMGHSVHSYFTRSNQPYVYGDYSIFLAEIASTTNENILTEYLLETEKDPRVRAYVLNHYLDGFKGTVFRQTQFAEFEHFMHTEDEKGVPLTSEYLSDSYGKLNAKYYGPAVEEDPEIKFEWSRIPHFYYNYYVFQYSTGFSAASALAKKILNQEPEALENYLAYLKAGNSDYPVEVMKKAGVDMTQAAYIEDAMSMFEQRLNELEELIDREGHHHHHH | not failed
2 | MSLSDTIPVFDGHNDFLLRLLRNPANRETIWLKGDGTGHLDLPRMKEGGFAGGFFAIYVPSPQAHDAAHFEAMMDAPPFELPLPPMIRAEQAQPVALAMAGHLLWMERAARGRFKVCRTAAEVRSCHADGIVSGIMHMEGAEAIGADLDALHLFHSLGLRSLGPVWSRPTVFGHGVPFRFPGSPDTGEGLTEAGRRLVAECNRLKIMLDLSHLNEKGFDDVARLSDAPLVATHSNAHAVTPSTRNLTDRQLAMIRESRGMVGLNFATSFLREDGRRSAEMGWEPVLRHLDHLIDRLGEDHVGMGSDFDGATIPQGIADVTGLPALQAAMRAHGYDEPLMRKLCHENWYGLLERTWGEGHHHHHH | not failed
3 | MSLSHKAWQNAHAMYENDACAKALGIDIISMDEGFAVVTMTVTAQMLNGHQSCHGGQLFSLADTAFAYACNSQGLAAVASACTIDFLRPGFAGDTLTATAQVRHQGKQTGVYDIEIVNQQQKTVALFRGKSHRIGGTITGEAEGGSHHHHHH | not failed
4 | MSLSINSREVLAEKVKNAVNNQPVTDMHTHLFSPNFGEILLWDIDELLTYHYLVAEVMRWTDVSIEAFWAMSKREQADLIWEELFIKRSPVSEACRGVLTCLQGLGLDPATRDLQVYREYFAKKTSEEQVDTVLQLANVSDVVMTNDPFDDNERISWLEGKQPDSRFHAALRLDPLLNEYEQTKHRLRDWGYKVNDEWNEGSIQEVKRFLTDWIERMDPVYMAVSLPPTFSFPEESNRGRIIRDCLLPVAEKHNIPFAMMIGVKKRVHPALGDAGDFVGKASMDGVEHLLREYPNNKFLVTMLSRENQHELVVLARKFSNLMIFGCWWFMNNPEIINEMTRMRMEMLGTSFIPQHSDARVLEQLIYKWHHSKSIIAEVLIDKYDDILQAGWEVTEEEIKRDVADLFSRNFWRFVGRNDHVTSVKVEQQTEGHHHHHH | not failed
5 | MSLSLLITSITINTSHLQGMLGFYRIIGFQFTASKVDKGSEVHRAVHNGVEFSLYSIQNPQRSQIPSLQLGFQITDLEKTVQELVKIPGAMCILDPTDMPDGKKAIVLDPDGHSIELCELEGHHHHHH | not failed
6 | MSLSNSKSTTTKDTVATLPNGASSLTETYGLWSINCGIQEGKKVCFMHRQEVNDQNRVVVAMSVVLNADGVVSGNLTVPFGILVSKPVRLQVDEGKAVIETGIRTCVPAGCIVPIVFDKNYVAALRAGKHLKLAMTIAAPGEPPLNDLFVQLNGFSNALNRLIALQKEGHHHHHH | not failed
7 | MSLSQNAPKSKGIKREELKKQYEDVEDEEEIGSDDDLTRGKRRKTEKEKQKLEESELVEMKKLENLIFGSLYSPVTFGKEEEEDGSALFHVDRSAVRQIPDYEDDGDDDEELSDEENGQVVAIRKGEAAWEDEEEKQINVDIASVNRLRKLRKEENEGLISGSEYIARLRAHHAKLNPGTDWARPDSQIVDGESSDDDDTQDGGVDDILRTNEDLVVKSRGNKLCAGRLEYSKLVDANAADPSNGPINSVHFHQNAQLLLTAGLDRRLRFFQIDGKRNTKIQSIFLEDCPIRKAAFLPNGSQVIVSGRRKFFYSFDLEKAKFDKIGPLVGREEKSLEYFEVSQDSNTIAFVGNEGYILLVSTKTKELIGTLKMNGSVRSLAFSEDGKHLLSSGGDGQVYVWDLRTMKCLYKGVDEGSTCGTSLCSSLNGALFASGTDRGIVNIYKKSEFVGGKRKPIKTVDNLTSKIDFMKFNHDAQILAIVSTMNKNSVKLVHVPSLTVFSNWPPPNSTMHYPRCLDFSPGSGFMAMGNAAGKVLLYKLHHYQNA | failed
8 | MSLSRSEEMHRLTENVYKTIMEQFNPSLRNFIAMGKNYEKALAGVTYAAKGYFDALVKMGELASESQGSKELGDVLFQMAEVHRQIQNQLEEMLKSFHNELLTQLEQKVELDSRYLSAALKKYQTEQRSKGDALDKCQAELKKLRKKSQGSKNPQKYSDKELQYIDAISNKQGELENYVSDGYKTALTEERRRFCFLVEKQCAVAKNSAAYHSKGKELLAQKLPLWQQA | not failed
9 | MSLSSGEHEASRVLRERDYRWEGTEEEAYKAEGTHFSGARRQTLVGRPAGQEAPAFETRYFEVEPGGYTTLERHEHTHVVMVVRGHAEVVLDDRVEPLTPLDCVYIAPHAWHQIHATGANEPLGFLCIVDSDRDRPQRPDADDLARMCADPAVARRIRTEGHHHHHH | not failed
10 | MSLSTARIMLVDDHPIVREGYRRLIERRPGYAVVAEAADAGEAYRLYRETTPDIVVMDLTLPGPGGIEATRHIRQWDGAARILIFTMHQGSAFALKAFEAGASGYVTKSSDPAELVQAIEAILAGRRAMSPDIAQEIAEERVEGREGHHHHHH | not failed
11 | MSLSVEFNKQQVRPRSEISPQDCWDITPLYLNRKAWKADLDSFGLKTDGSPTWPALQATQYQLDNSESLLSLLTTLFSIERKLNKLYVYAHLTHDQDITNQEGIADLKSITHLHTLFAEETSWVQPALTSLSESLIAQHLSAPCLAPYRFYLEKIFRLSIHTGTPGEEKILASAFTPLEVASKAFSSLSDSEIPFGQATDSEGNSHPLSHALASLYMQSTDRELRKTSYLAQCERYHSYRHTFANLLNGKIQAHVFYAKNKRYNSCLQAALYHNNIPTTVYTNLIDIVKKNSSLITKYFSIKQRCLNLKDFHFYDVYAPLSQSKEKKYTFQEAVDLIYTSLSPLGTEYIDTLKQGLTTQGWVDKYENLNKRSGAYSSGCYDSHPYVLLNYTGTLYDVSVIAHEGGHSMHSYFSRKHQPFHDAQYPIFLAEIASTLNEMLLMDSMLKESDSKEEKITILTRCLDTIFSTLFRQVLFASFEYDIHHAAEHGVPLTEEYLSSTYKNLQNEFYGEIITFDVLSNIEWARIPHFYYNFYVYQYATGIIAALCFLEKILNNEDNALNSYLNFLKSGGSDFPLEILKKSGLDMGTVEPIQKAFCFIEKKIQELSSLIEGHHHHHH | not failed
12 | MSLSYLTEEKLTIVGAAGMIGSNMAQTAAMMRLTPNLCLYDPFAVGLEGVAEEIRHCGFEGLNLTFTSDIKEALTDAKYIVSSGGAPRKEGMTREDLLKGNAEIAAQLGKDIKSYCPDCKHVIIIFNPADITGLVTLIYSGLKPSQVTTLAGLDSTRLQSELAKHFGIKQSLVTNTRTYGGHGEQMAVFASTAKVNGTPLTDLIGTDKLTNEQWAELKQRVVKGGANIIKLRGRSSFQSPSYVSIEMIRAAMGGEAFRWPAGCYVNVPGFEHIMMAMETTITKDGVKHSDINQLGNEAERAALKESYSHLAKLRDEVIAMGIIPAIADWKTVNPNEGHHHHHH | not failed
13 | MSLTAQIRLAEPADLNDDTLRARAVAAARGDQRFDVLITGGTLVDVVTGELRPADIGIVGALIASVHEPASRRDAAQVIDAGGAYVSPGLIDTHMHIESSMITPAAYAAAVVARGVTTIVWDPHEFGNVHGVDGVRWAAKAIENLPLRAILLAPSCVPSAPGLERGGADFDAAILADLLSWPEIGGIAEIMNMRGVIERDPRMSGIVQAGLAAEKLVCGHARGLKNADLNAFMAAGVSSDHELVSGEDLMAKLRAGLTIELRGSHDHLLPEFVAALNTLGHLPQTVTLCTDDVFPDDLLQGGGLDDVVRRLVRYGLKPEWALRAATLNAAQRLGRSDLGLIAAGRRADIVVFEDLNGFSARHVLASGRAVAEGGRMLVDIPTCDTTVLKGSMKLPLRMANDFLVKSQGAKVRLATIDRPRFTQWGETEADVKDGFVVPPEGATMISVTHRHGMAEPTTKTGFLTGWGRWNGAFATTVSHDSHNLTVFGGNAGDMALAANAVIGTGGGMAVASEGKVTAILPLPLSGLVSDAPLEEVARAFEDLREAVGKVVEWQPPYLVFKACFGATLACNIGPHQTDMGIADVLTGKVMESPVIEVLGEGHHHHHH | not failed
